Paper PMC5751952

Biological target: wild-type ElDyP lacking the His6 tag (subtilisin A-treated, for crystallization) (Enterobacter lignolyticus)
Experiment: crystal structure

“wild-type ElDyP lacking the His6 tag (subtilisin A-treated, for crystallization) (enzyme)” showed a stoichiometry N of 2.
